{
  "source": "patent US20250352581A1",
  "about": "(NEOMICS PHARMACEUTIALS, published 2025)",
  "binders": {"B1": {"name": "PD1-28-TNR9(41BBt) PD-1 chimeric co-stimulatory receptor (PD-1 extracellular domain_CD28 stalk, transmembrane and signaling domain_truncated 4-1BB signaling … (receptor)", "chain": "FLDSPDRPWNPPTFSPALLVVTEGDNATFTCSFSNTSESFVLNWYRMSPSNQTDKLAAFPEDRSQPGQDCRFRVTQLPNGRDFHMSVVRARRNDSGTYLCGAISLAPKAQIKESLRAELRVTERRAEVPTAHPSPSPRPALFPGPSKPFWVLVVVGGVLACYSLLVTVAFIIFWVRSKRSRLLHSDYMNMTPRRPGPTRKHYQPYAPPRDFAAYRSQPFMRPVQTTQEEDGCSCRFPEEEEGGCEL"}},
  "target": "PD-L1 expressed on target cells (K562-PDL1, A375-PDL1, A549-HLA-A2/PDL1) (UniProt Q9NZQ7 19-290, limits assumed)",
  "sequence (Q9NZQ7 19-290 limits assumed)": "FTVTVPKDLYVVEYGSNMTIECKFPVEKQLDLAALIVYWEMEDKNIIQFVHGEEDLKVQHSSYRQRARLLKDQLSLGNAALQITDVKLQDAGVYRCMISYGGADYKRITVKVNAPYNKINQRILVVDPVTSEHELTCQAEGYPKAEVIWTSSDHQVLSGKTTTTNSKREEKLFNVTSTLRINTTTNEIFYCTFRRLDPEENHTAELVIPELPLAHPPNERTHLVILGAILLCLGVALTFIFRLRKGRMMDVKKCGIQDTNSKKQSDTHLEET",
  "assay": "cell-based or functional assay",
  "data": [
    {"binder": "B1", "values": [
      {"measurement": "T cell expansion (GSK-794 and 2007 TCR T cells on A375-PDL1 cells)", "value": "≥ 60", "unit": "fold"}
    ]}
  ]
}
